From the supplement of paper PMC7125110
± gives the standard error. Fewer inactive variants are shown than the library holds.

B1: glmS ribozyme (parent)
chain: AUAAAAGCGCCAGAACUACAGAAAUGUAGUUGACGAGGAGGAGGUUUAUCGAAUUUUCGGCGGAUGCCUCCAAA

Variants of: B1
Experiment: self-cleavage kobs at 2500 uM GlcN6P; higher = faster cleavage; RNA array
Conditions: with glucosamine-6-phosphate
Procedure, shortened: (§1)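 Ribozyme variants carrying barcodes were transcribed in situ on sequenced MiSeq chips by E. coli RNA polymerase and tracked at 37 °C with a hybridised Cy3 probe. They were exposed to 40 μM to 10 mM glucosamine-6-phosphate in HEPES/KCl/Mg(OAc)2 buffer. kobs came from exponential decay fits of normalised per-tile medians, and kcat and KM from weighted Michaelis–Menten fits.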

Variant	self-cleavage kobs at 2500 uM GlcN6P [s⁻¹]
AUAAAAGCGCCAGAGCUACAGAAAUGUAGUUGACGAGGAGGAGAUUUAUCGAAUUUUCGGCGGAAGCCUCCAAA	8e-05 ± 2e-05
AUAAAAGCCCCAGAACUACAGAAAUGUAGUUGACGAGGAGGAGGUAUAUCGAAUUUUCGGCGGAUGCCUCUAAA	< 1e-05
AUAAAAGCGCCAGAACUACAGAAAUUUAGUUCACUAGUAGGAGGUUUAUCGAAUUUUCGGCGCAUGCCUCCAAA	< 1e-05
AUAAAAGCGCCAGAACUACAGAAAUGUAGUUGACGAGGAGGAGGUUUCUCGAAUUUUCGGUGGAUACCUCCAAA	< 1e-05
AUAAAAGCGCCAGAACUACAGAAAUGUAGUUUACGAGGAGGAGGUUUAUCGAAUUUUCAGCGGAUGCGUCCAAA	0.000713 ± 0.00028
AUAAAAGCGCCAGCACUACAGAAAUGUAGUUGGGGACGAGGAGGUUUAUCGAAUUUUCGCCGGAUGCCUCCAAA	< 1e-05
AUAAAAGCGCCAGAACUACAGAAAUGUAGUUGACGAGGAGGAUGUUUAGCGAAUUUUCGGGGGAUGCCUCCAAA	< 1e-05
AUAAAAGCGCCAGAACUACAGAAAUGUAGUUUAUGAGGAGGGGGUCUAUCGAAUUUUCGGCGGCUGCCUCCAAA	< 1e-05
AUAAAAGCGCCAGAACUACAGAAAUGUAAUUGACGAGGAGGAGGUUUUUCGAUUUUUAUGCGGAUGCCUCCAAA	< 1e-05
AUAAAAGUGCCAUAACUACAGAAAUGUAGUUGACGAGGUGGGGGUUUAUCGAAUUUUCGGCGGAUGCCUCCAAA	< 1e-05
AUAAAAGCGCCAGAACUACAGAAAUGUAGAUGUAGCCGAGGAGGUUUAUCGAAUUUGCGGCGGAUGCCUCCAAA	< 1e-05
AUAAAAGCGCCAGUGCUACAGAAAUGUAGUUUACGAGGAGGAGGUUUAUCGAAUUUGCGGCGGAUGCCACCAAA	0.000285 ± 0.00012
AUAAAAACACCAGCACUACAGAAAUGUAGUUGACGAGGAGGAGAUUUAUCGAAUUUUCGGCGGAUGCCUCCAAA	< 1e-05
AUAAAAGCGCCAGAACUACAGAAAUGUAGUUGAAGAUGUGGAGGUUUAUCGAAUUUCCGGCGGAUGACUCCAAA	< 1e-05
AUAAAAGCGCCAGAACUACAGAAAUGUAUUUGACGAGGAGGAGGUAUAUCGAAUUAUCGGCUGAUGCUUCCAAA	< 1e-05
AUAAAAAGCCCAGACCUACAGAAAUGUAGUUGACGAGGAGGAGGUUGAUCGAAUUUUCGGCGGAUGCCUCAAAA	< 1e-05
AUAAAAGCGCCAGAACUACAGAAAUGUAGUUGACGAGGAGGAGAUAUUUCGACUUUUCGGCGGAUGCCUCCAAA	< 1e-05

Variant	self-cleavage kobs at 2500 uM GlcN6P [s⁻¹]
AUAAAAGCGCCAGAACUACAGAAAUGUAGUUGACGAGGAGGAGUGUUAUCGAAUUUUCGGCGGAUGCCUUCAAA	0.000791 ± 0.00023
AUAAAUGCGCCAGAACUACAGAAAUGUAGUUGACGAGGAGGAGGUUUAUCGAAUUAUCGGCGUAUGCCUCCAAA	< 1e-05
AUAAAAGGGCCAGAACUACAGAAAUGUAGUUGACAAGGAGGACGUUUAUCGAAUUUUCGGCGGAUGCCGCCAAA	< 1e-05
AUAAAAGCGCGAGAACUACAGAAAUGUAGUUGACGAGGAGGAGGUGUAUCGAAUUUUCCGCGGAGGCCUCCAAA	0.000186 ± 8.3e-05
AUAAAACCGCCAUAACUACAGAAAUGUAGUUGACGAGGAGGACGUUUAUCGAAUUUUCGGCGGAUUCCUCCAAA	< 1e-05
AUAAAAGCGACAGAACUACAGAAAUGUAGUUGACGAGGAGGAGGUUCAUCGAAUUUUCGGCUGAUGCCUCCAAA	< 1e-05
AUAAAAUCGCCAGAACUACAGAAAUGUAGUCGACGAGGAGGAAGUUUAUCGAAUUUUCGGCGGAUGCCUCCAAA	< 1e-05
AUAAAAGCGCCAGAACUACAGAAAUGUAGUUGACGAGGGGGAGGUUUAUCGACUUUUCGGCGGAUGCCUACAAA	0.000143 ± 4.2e-05
AUAAAAGCGCCAGAACUACAGAAAUGUAGUUGACGAGGAGGAGGUAUAUCGAAUUGUCGGCGGAUGGCUCCAAA	0.000172 ± 4.6e-05
AUAAAAGCGCCAGAACUACAGAAAUGUAGAUGACGAGGAGGAGGUUUAUAGAAUUUUCGGCGGAUGCUUCCAAA	4.96e-05 ± 2.3e-05
AUAAAAGCGCUAGCACUACAGAAAUGUAGUUGACGAGGUGGAGGUUUAUCGAAUUCUCGGCGGAUGCCUCCAAA	7.9e-05 ± 2.4e-05
AUAAAAGCGCCAGAACUACAGAAAUGUAGUUGACGAGGUGUAGGUUUAUCGAAUUUUCGGCGGAUGCCUCAAAA	4.06e-05 ± 2e-05
AUAAAAUCGCCAGAACUACAGAAAUGUAGUUGACGAGGAGGCGGUUUAUCGAAUUUUCGGCGGUUUCCUCCAAA	< 1e-05
AUAAAUGCGCCAGAACUACAGAAAUGUAGUUGACGAUGAUGAGGUUUAUCGAAUUUUCGGCGGAUGCCUCCAAA	< 1e-05
AUAAAAGAGCCACAACUACAGAAAUGUAGUUGACGGGGAGGAGGUUUAUCGAAUUGUCGGCGGAUGCCUUCAAA	< 1e-05
AUAAAAGCGCGAGAACUACAGAAAUGUAGUUGACGAGGAGGAGGUUUAUGGAAUUUUAGGAGGAUGCCUCCAAA	0.000322 ± 0.00011
AUAAAAGCGCCAGUACUACAGAAAUGUAGUUGACGAGGAGGAGGUUUCUCGAAUUUUCGGCGGAUGCCUUCAAA	3.58e-05 ± 1.6e-05

Variants of: B1
Experiment: self-cleavage kobs at 10000 uM GlcN6P; higher = faster cleavage; RNA array
Conditions: with glucosamine-6-phosphate
Procedure, shortened: as §1

Variant	self-cleavage kobs at 10000 uM GlcN6P [s⁻¹]
AUAAAAGCGCCAGAACUACAGAAAUGUAGAUGUAGCCGAGGAGGUUUAUCGAAUUUGCGGCGGAUGCCUCCAAA	< 1e-05
AUAAAAGCGACAGAACUACAGAAAUGUAGUUGACGAGGAGGAGGUUCAUCGAAUUUUCGGCUGAUGCCUCCAAA	< 1e-05
AUAAAAGCGCCAGAACUACAGAAAUGUAGUUGACGAGGGGGAGGUUUAUCGACUUUUCGGCGGAUGCCUACAAA	0.000165 ± 4.3e-05
